Results from PMC3034353.
One block for each substance: values may come before it.

Key:
[1] = target: Bacillus subtilis τ protein (wild type) (B. subtilis) (UniProt P09122); experiment: SEC
[2] = target: Bacillus stearothermophilus DnaB helicase (B. stearothermophilus) (UniProt Q9X4C9); experiment: AUC
[3] = target: Bacillus subtilis τ protein L381A mutant (B. subtilis) (UniProt P09122); experiment: SEC
[4] = target: Bacillus subtilis τ protein L381A mutant (B. subtilis) (UniProt P09122); experiment: AUC
[5] = target: Bacillus subtilis τ protein L381P mutant (B. subtilis) (UniProt P09122); experiment: SEC

stoichiometry N [1]: 4
stoichiometry N (τ pentamer per DnaB hexamer) [2]: 1
Substance: Bacillus subtilis τ protein (wild type) (from UniProt P09122 1-563) (natural protein)

stoichiometry N [3]: 3
stoichiometry N [4]: 4
Substance: Bacillus subtilis τ protein L381A mutant (from UniProt P09122 1-563) (natural protein)

stoichiometry N [5]: 3
Substance: Bacillus subtilis τ protein L381P mutant (from UniProt P09122 1-563) (natural protein)
